In patent publication US20100093619A1:

Columns and labels:
Assay in all cases: cell-based or functional assay
[1] = target: cysteine-like cathepsin-B protease activity from Leptinotarsa decemlineata (Colorado potato beetle) gut extracts (Leptinotarsa decemlineata)
[2] = target: cysteine-like cathepsin-B protease activity from Acyrthosiphon pisum (pea aphid) extracts (Acyrthosiphon pisum)
[3] = target: serine-like chymotrypsin protease activity from Spodoptera littoralis (cotton leafworm) gut extracts (Spodoptera littoralis)
[4] = target: serine-like trypsin protease activity from Sesamia nonagrioides (Mediterranean corn borer) gut extracts (Sesamia nonagrioides)
[5] = target: serine-like chymotrypsin protease activity from Sesamia nonagrioides (Mediterranean corn borer) gut extracts (Sesamia nonagrioides)
[6] = target: cysteine-like cathepsin-L protease activity from Tribolium castaneum (red flour beetle) extracts (Tribolium castaneum)
[7] = target: cysteine-like cathepsin-L protease activity from Tetranychus urticae (spider mite) extracts (Tetranychus urticae)
[8] = target: cysteine-like cathepsin-L protease activity from Acyrthosiphon pisum (pea aphid) extracts (Acyrthosiphon pisum)
[9] = target: cysteine-like cathepsin-L protease activity from Bemisia tabaci (sweetpotato whitefly) extracts (Bemisia tabaci)
[10] = target: serine-like trypsin protease activity from Spodoptera littoralis (cotton leafworm) gut extracts (Spodoptera littoralis)
[11] = target: cysteine-like cathepsin-L protease activity from Leptinotarsa decemlineata (Colorado potato beetle) gut extracts (Leptinotarsa decemlineata)
[12] = target: serine-like trypsin protease activity from Ostrinia nubilalis (European corn borer) gut extracts (Ostrinia nubilalis)

B1: recombinant AtSerpin1 (Arabidopsis thaliana serpin-1, At1g47710), HIS6-tagged (protein, not shown: small tags and cut ends)
chain: MDVRESISLQNQVSMNLAKHVITTVSQNSNVIFSPASINVVLSIIAAGSAGATKDQILSFLKFSSTDQLNSFSSEIVSAVLADGSANGGPKLSVANGAWIDKSLSFKPSFKQLLEDSYKAASNQADFQSKAVEVIAEVNSWAEKETNGLITEVLPEGSADSMTKLIFANALYFKGTWNEKFDESLTQEGEFHLLDGNKVTAPFMTSKKKQYVSAYDGFKVLGLPYLQGQDKRQFSMYFYLPDANNGLSDLLDKIVSTPGFLDNHIPRRQVKVREFKIPKFKFSFGFDASNVLKGLGLTSPFSGEEGLTEMVESPEMGKNLCVSNIFHKACIEVNEEGTEAAAASAGVIKLRGLLMEEDEIDFVADHPFLLVVTENITGVVLFIGQVVDPLH
% Inhibition of cathepsin B activity at 1.25 µM AtSerpin1 [1]: 40% | % Inhibition of cathepsin B activity at 5 µM AtSerpin1 [1]: 47% | % Inhibition of cathepsin B activity at 10 µM AtSerpin1 [1]: 46% | concentration of AtSerpin1 for 50% inhibition of cathepsin-B activity (fluorometric substrate, FIG. 12) [1]: > 10 µM | % Inhibition of cathepsin B activity at 1.25 µM AtSerpin1 [2]: 50% | % Inhibition of cathepsin B activity at 5 µM AtSerpin1 [2]: 55% | % Inhibition of cathepsin B activity at 10 µM AtSerpin1 [2]: 55% | concentration of AtSerpin1 for 50% inhibition of cathepsin-B activity (FIG. 14) [2]: 1 µM | % Inhibition of chymotrypsin activity at 1.25 µM AtSerpin1 [3]: 10% | % Inhibition of chymotrypsin activity at 5 µM AtSerpin1 [3]: 31% | % Inhibition of chymotrypsin activity at 10 µM AtSerpin1 [3]: 40% | concentration of AtSerpin1 for 50% inhibition of chymotrypsin activity (FIG. 10) [3]: 10 to 20 µM | % Inhibition of trypsin activity at 1.25 µM AtSerpin1 [4]: 90% | % Inhibition of trypsin activity at 5 µM AtSerpin1 [4]: 97% | % Inhibition of trypsin activity at 10 µM AtSerpin1 [4]: 98% | concentration of AtSerpin1 for 50% inhibition of trypsin activity (FIG. 11) [4]: 0.1 µM | concentration of AtSerpin1 for ≧50% inhibition of chymotrypsin activity (FIG. 11) [5]: > 10 µM | IC50 of inhibition of cathepsin-L activity (FIG. 13) [6]: 4 µM | concentration of AtSerpin1 for 50% inhibition of cathepsin-L activity (FIG. 16) [7]: 2 µM | % Inhibition of cathepsin L activity at 1.25 µM AtSerpin1 [8]: 42% | % Inhibition of cathepsin L activity at 5 µM AtSerpin1 [8]: 42% | % Inhibition of cathepsin L activity at 10 µM AtSerpin1 [8]: 39% | plateau of % inhibition of cathepsin-L activity (FIG. 14) [8]: 60% | % inhibition of cathepsin-L activity at 20 µM AtSerpin1 (FIG. 15) [9]: 45% | % Inhibition of trypsin activity at 1.25 µM AtSerpin1 [10]: 52% | % Inhibition of trypsin activity at 5 µM AtSerpin1 [10]: 83% | % Inhibition of trypsin activity at 10 µM AtSerpin1 [10]: 90% | concentration of AtSerpin1 for 50% inhibition of trypsin activity (fluorometric substrate, FIG. 10) [10]: 1 µM | % Inhibition of cathepsin L activity at 1.25 µM AtSerpin1 [11]: 4% | % Inhibition of cathepsin L activity at 5 µM AtSerpin1 [11]: 34% | % Inhibition of cathepsin L activity at 10 µM AtSerpin1 [11]: 48% | concentration of AtSerpin1 for 50% inhibition of cathepsin-L activity (fluorometric substrate, FIG. 12) [11]: > 10 µM | % Inhibition of trypsin activity at 2 µM AtSerpin1 [12]: 28%
